B1: Nuclear polyadenylated RNA-binding protein 4 (Saccharomyces cerevisiae), Q99383 (parent)
chain: MSSDEEDFNDIYGDDKPTTTEEVKKEEEQNKAGSGTSQLDQLAALQALSSSLNKLNNPNSNNSSSNNSNQDTSSSKQDGTANDKEGSNEDTKNEKKQESATSANANANASSAGPSGLPWEQLQQTMSQFQQPSSQSPPQQQVTQTKEERSKADLSKESCKMFIGGLNWDTTEDNLREYFGKYGTVTDLKIMKDPATGRSRGFGFLSFEKPSSVDEVVKTQHILDGKVIDPKRAIPRDEQDKTGKIFVGGIGPDVRPKEFEEFFSQWGTIIDAQLMLDKDTGQSRGFGFVTYDSADAVDRVCQNKFIDFKDRKIEIKRAEPRHMQQKSSNNGGNNGGNNMNRRGGNFGNQGDFNQMYQNPMMGGYNPMMNPQAMTDYYQKMQEYYQQMQKQTGMDYTQMYQQQMQQMAMMMPGFAMPPNAMTLNQPQQDSNATQGSPAPSDSDNNKSNDVQTIGNTSNTDSGSPPLNLPNGPKGPSQYNDDHNSGYGYNRDRGDRDRNDRDRDYNHRSGGNHRRNGRGGRGGYNRRNNGYHPYNR
partner: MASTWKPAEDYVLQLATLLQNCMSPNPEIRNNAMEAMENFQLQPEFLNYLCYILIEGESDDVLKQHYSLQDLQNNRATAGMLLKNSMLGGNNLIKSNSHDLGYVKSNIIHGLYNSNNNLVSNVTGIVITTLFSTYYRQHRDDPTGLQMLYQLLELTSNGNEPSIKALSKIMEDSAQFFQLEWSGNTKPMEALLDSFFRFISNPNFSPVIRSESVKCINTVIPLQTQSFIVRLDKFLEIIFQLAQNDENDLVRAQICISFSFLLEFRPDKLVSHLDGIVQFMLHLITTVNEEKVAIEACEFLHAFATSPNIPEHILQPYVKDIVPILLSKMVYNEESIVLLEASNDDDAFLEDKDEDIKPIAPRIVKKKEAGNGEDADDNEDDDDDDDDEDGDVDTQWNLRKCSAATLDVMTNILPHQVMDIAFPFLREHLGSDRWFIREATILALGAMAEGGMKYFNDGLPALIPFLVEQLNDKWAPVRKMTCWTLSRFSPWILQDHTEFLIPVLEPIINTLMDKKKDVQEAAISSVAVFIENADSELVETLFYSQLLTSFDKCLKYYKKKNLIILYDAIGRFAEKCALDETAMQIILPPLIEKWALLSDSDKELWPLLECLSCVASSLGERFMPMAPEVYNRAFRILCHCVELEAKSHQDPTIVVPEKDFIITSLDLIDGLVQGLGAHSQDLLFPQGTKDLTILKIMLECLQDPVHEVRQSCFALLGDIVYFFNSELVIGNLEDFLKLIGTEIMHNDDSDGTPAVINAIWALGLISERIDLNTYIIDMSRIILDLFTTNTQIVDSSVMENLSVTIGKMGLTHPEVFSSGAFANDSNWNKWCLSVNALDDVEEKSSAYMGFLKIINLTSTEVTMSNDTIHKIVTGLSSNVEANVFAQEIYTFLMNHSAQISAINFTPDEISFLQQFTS
B2: Nuclear polyadenylated RNA-binding protein NAB2 (Saccharomyces cerevisiae), P32505 (parent)
chain: MSQEQYTENLKVIVAEKLAGIPNFNEDIKYVAEYIVLLIVNGGTVESVVDELASLFDSVSRDTLANVVQTAFFALEALQQGESAENIVSKIRMMNAQSLGQSDIAQQQQQQQQQQQPDIAQQQPQQQPQQQPQQQPQQQPQQQPQQQPQQQPQQQPQLQPLQPQLGTQNAMQTDAPATPSPISAFSGVVNAAAPPQFAPVDNSQRFTQRGGGAVGKNRRGGRGGNRGGRNNNSTRFNPLAKALGMAGESNMNFTPTKKEGRCRLFPHCPLGRSCPHAHPTKVCNEYPNCPKPPGTCEFLHPNEDEELMKEMERTREEFQKRKADLLAAKRKPVQTGIVLCKFGALCSNPSCPFGHPTPANEDAKVIDLMWCDKNLTCDNPECRKAHSSLSKIKEVKPISQKKAAPPPVEKSLEQCKFGTHCTNKRCKYRHARSHIMCREGANCTRIDCLFGHPINEDCRFGVNCKNIYCLFRHPPGRVLPEKKGAAPNSNVPTNERPFALPENAIIENAPPQTSFTHQEQDTEMN
partner: B1 partner

Variants of: B1
Settings: with imb2_yeast KAP104, P38217

Variant | effect of a mutation on the interaction
Y529A | disrupting interaction
Y532H | disrupting interaction strength
Y532F | disrupting interaction strength
Y532M | disrupting interaction strength
R512A;R513A;R516A;R519A | disrupting interaction strength

Variants of: B2
Settings: with imb2_yeast KAP104, P38217

Variant | effect of a mutation on the interaction
R218A;R219A;R222A;R226A;R229A | disrupting interaction strength
L239E | disrupting interaction strength
L239P | disrupting interaction strength
L239D | disrupting interaction strength
L239I | disrupting interaction strength
P238A;L239A | disrupting interaction
R222A;P238A;L239A | disrupting interaction
R235A;P238A;L239A | disrupting interaction
K216A;N217A;R218A;R219A | disrupting interaction
R235A | disrupting interaction
F236A | disrupting interaction
